Measurements as given in the supplement of paper PMC9112550, “Optimization of the antimicrobial peptide Bac7 by deep mutational scanning” (BMC Biology, 2022).

System: Escherichia coli TOP10
Test: shrunken log2 fold change of peptide-encoding DNA abundance (4.5 h post-induction vs induction); higher = less antimicrobial activity (less host growth inhibition)
Conditions: time post-induction: 4.5 h; library: site-saturation at positions 5, 18, 19, 20
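Further: peptides expressed intracellularly from a pBAD plasmid library in pooled LB shake-flask culture, induced with 0.3% L-arabinose, DNA abundance read by NGS, three biological replicates, DESeq2 with apeglm shrinkage.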

Row | Sequence | shrunken log2 fold change
1 | RRIRGRPPRLPRPRPRPVEQPRP | 0.0754
2 | RRIRGRPPRLPRPRPRPVFKPRP | 0.193
3 | RRIRGRPPRLPRPRPRPVFLPRP | -0.0506
4 | RRIRGRPPRLPRPRPRPVGEPRP | 1.23
5 | RRIRGRPPRLPRPRPRPVGGPRP | 0.897
6 | RRIRGRPPRLPRPRPRPVGPPRP | 0.762
7 | RRIRGRPPRLPRPRPRPVIAPRP | 0.506
8 | RRIRGRPPRLPRPRPRPVIPPRP | 0.000617
9 | RRIRGRPPRLPRPRPRPVKNPRP | 0.554
10 | RRIRGRPPRLPRPRPRPVLAPRP | 0.773
11 | RRIRGRPPRLPRPRPRPVLYPRP | 0.069
12 | RRIRGRPPRLPRPRPRPVMCPRP | 0.522
13 | RRIRGRPPRLPRPRPRPVNKPRP | 0.0892
14 | RRIRGRPPRLPRPRPRPVPRPRP | 0.806
15 | RRIRGRPPRLPRPRPRPVQCPRP | 0.102
16 | RRIRGRPPRLPRPRPRPVQQPRP | 0.515
17 | RRIRGRPPRLPRPRPRPVQSPRP | 0.689
18 | RRIRGRPPRLPRPRPRPVQYPRP | 0.118
19 | RRIRGRPPRLPRPRPRPVRDPRP | 0.401
20 | RRIRGRPPRLPRPRPRPVSGPRP | 0.731
21 | RRIRGRPPRLPRPRPRPVSNPRP | 0.568
22 | RRIRGRPPRLPRPRPRPVSPPRP | 0.101

Row | Sequence | shrunken log2 fold change
23 | RRIRGRPPRLPRPRPRPVWCPRP | 0.245
24 | RRIRGRPPRLPRPRPRPVWHPRP | 0.228
25 | RRIRGRPPRLPRPRPRPVWPPRP | 0.947
26 | RRIRGRPPRLPRPRPRPVWRPRP | 1.21
27 | RRIRGRPPRLPRPRPRPWCWPRP | 0.682
28 | RRIRGRPPRLPRPRPRPWDYPRP | 0.183
29 | RRIRGRPPRLPRPRPRPWEHPRP | -0.000921
30 | RRIRGRPPRLPRPRPRPWEIPRP | 0.361
31 | RRIRGRPPRLPRPRPRPWERPRP | 0.0531
32 | RRIRGRPPRLPRPRPRPWEVPRP | 0.0273
33 | RRIRGRPPRLPRPRPRPWHIPRP | -0.111
34 | RRIRGRPPRLPRPRPRPWHPPRP | 0.49
35 | RRIRGRPPRLPRPRPRPWICPRP | -0.00439
36 | RRIRGRPPRLPRPRPRPWIGPRP | 0.0233
37 | RRIRGRPPRLPRPRPRPWLEPRP | 0.303
38 | RRIRGRPPRLPRPRPRPWLKPRP | -0.24
39 | RRIRGRPPRLPRPRPRPWMAPRP | 0.439
40 | RRIRGRPPRLPRPRPRPWMSPRP | 0.0647
41 | RRIRGRPPRLPRPRPRPWRQPRP | 0.0568
42 | RRIRGRPPRLPRPRPRPWSKPRP | -0.423
43 | RRIRGRPPRLPRPRPRPWSSPRP | -0.0552
44 | RRIRGRPPRLPRPRPRPWTSPRP | 0.0439

Row | Sequence | shrunken log2 fold change
45 | RRIRGRPPRLPRPRPRPWVYPRP | -0.0165
46 | RRIRGRPPRLPRPRPRPWWSPRP | 0.00664
47 | RRIRGRPPRLPRPRPRPWYDPRP | -0.929
48 | RRIRGRPPRLPRPRPRPWYTPRP | -0.225
49 | RRIRGRPPRLPRPRPRPYAIPRP | -0.0622
50 | RRIRGRPPRLPRPRPRPYAMPRP | 0.451
51 | RRIRGRPPRLPRPRPRPYCRPRP | -0.237
52 | RRIRGRPPRLPRPRPRPYCTPRP | -0.0267
53 | RRIRGRPPRLPRPRPRPYDIPRP | -0.068
54 | RRIRGRPPRLPRPRPRPYDMPRP | -0.0187
55 | RRIRGRPPRLPRPRPRPYDPPRP | -0.0783
56 | RRIRGRPPRLPRPRPRPYDRPRP | 0.136
57 | RRIRGRPPRLPRPRPRPYFRPRP | 0.0786
58 | RRIRGRPPRLPRPRPRPYGQPRP | 0.0682
59 | RRIRGRPPRLPRPRPRPYHTPRP | -0.779
60 | RRIRGRPPRLPRPRPRPYIRPRP | -0.111
61 | RRIRGRPPRLPRPRPRPYKNPRP | -0.22
62 | RRIRGRPPRLPRPRPRPYKWPRP | -0.0702
63 | RRIRGRPPRLPRPRPRPYLMPRP | -0.0538
64 | RRIRGRPPRLPRPRPRPYLTPRP | -0.0518
65 | RRIRGRPPRLPRPRPRPYMKPRP | -0.493
66 | RRIRGRPPRLPRPRPRPYNKPRP | -0.593

Row | Sequence | shrunken log2 fold change
67 | RRIRGRPPRLPRPRPRPYNRPRP | 0.00858
68 | RRIRGRPPRLPRPRPRPYPHPRP | 0.103
69 | RRIRGRPPRLPRPRPRPYQDPRP | 0.0178
70 | RRIRGRPPRLPRPRPRPYQYPRP | -0.0692
71 | RRIRGRPPRLPRPRPRPYRHPRP | 0.161
72 | RRIRGRPPRLPRPRPRPYRNPRP | -0.39
73 | RRIRGRPPRLPRPRPRPYTPPRP | -0.526
74 | RRIRHRPPRLPRPRPRPAACPRP | 0.066
75 | RRIRHRPPRLPRPRPRPAAQPRP | -0.0888
76 | RRIRHRPPRLPRPRPRPACFPRP | -0.126
77 | RRIRHRPPRLPRPRPRPADEPRP | 0.0084
78 | RRIRHRPPRLPRPRPRPADHPRP | 0.134
79 | RRIRHRPPRLPRPRPRPADMPRP | 0.0208
80 | RRIRHRPPRLPRPRPRPADWPRP | 0.0838
81 | RRIRHRPPRLPRPRPRPAELPRP | -0.00261
82 | RRIRHRPPRLPRPRPRPAFDPRP | -0.00345
83 | RRIRHRPPRLPRPRPRPAGFPRP | -0.207
84 | RRIRHRPPRLPRPRPRPAGVPRP | 0.141
85 | RRIRHRPPRLPRPRPRPAHRPRP | 0.162
86 | RRIRHRPPRLPRPRPRPAILPRP | -0.171
87 | RRIRHRPPRLPRPRPRPAKDPRP | -0.0214
88 | RRIRHRPPRLPRPRPRPALEPRP | -0.069

Row | Sequence | shrunken log2 fold change
89 | RRIRHRPPRLPRPRPRPAMWPRP | 0.00652
90 | RRIRHRPPRLPRPRPRPANVPRP | -0.192
91 | RRIRHRPPRLPRPRPRPAPPPRP | 0.854
92 | RRIRHRPPRLPRPRPRPAQYPRP | -0.0609
93 | RRIRHRPPRLPRPRPRPARFPRP | 0.358
94 | RRIRHRPPRLPRPRPRPARTPRP | 0.19
95 | RRIRHRPPRLPRPRPRPATFPRP | -0.662
96 | RRIRHRPPRLPRPRPRPATYPRP | -0.501
97 | RRIRHRPPRLPRPRPRPAVMPRP | -0.0305
98 | RRIRHRPPRLPRPRPRPAYFPRP | -0.833
99 | RRIRHRPPRLPRPRPRPAYIPRP | -0.00844
100 | RRIRHRPPRLPRPRPRPAYSPRP | -0.000852
101 | RRIRHRPPRLPRPRPRPAYWPRP | 2.61
102 | RRIRHRPPRLPRPRPRPCAKPRP | -0.251
103 | RRIRHRPPRLPRPRPRPCARPRP | -0.0479
104 | RRIRHRPPRLPRPRPRPCCGPRP | -0.114
105 | RRIRHRPPRLPRPRPRPCCHPRP | -0.707
106 | RRIRHRPPRLPRPRPRPCCIPRP | -0.0109
107 | RRIRHRPPRLPRPRPRPCCSPRP | -0.313
108 | RRIRHRPPRLPRPRPRPCDDPRP | -0.0661
109 | RRIRHRPPRLPRPRPRPCDEPRP | -0.0443
